According to US20250122303A1 (HUMMINGBIRD BIOSCIENCE PTE, published 2025):
Where two headings read alike, the source gives them in different places.

Key:
[1] = target: T1, human HER3 expressed on cells (HEK293 HER3 O/E cells) (human, UniProt P21860 20-1342); assay: flow cytometry on HEK293T HER3 O/E cells, 10 ug antibody as printed, FITC-conjugated anti-Fc secondary
T1 construct: Also used here for HER3 on U2OS cells of the PathHunter kit and on cancer cell lines; also called HEK293 cells transfected with vector encoding human HER3; human HER3-expressing cells
Experimental: (§1) The cells were washed with buffer (PBS with 2 mM EDTA and 0.5% BSA) and resuspended in FITC-conjugated anti-FC antibody (Invitrogen, USA) at 10 μg/ml for 20 min at 4° C. Cells were washed again and resuspended in 200 μL of FACS flow buffer (PBS with 5 mM EDTA) for flow cytometric analysis using MACSQuant 10 (Miltenyi Biotec, Germany). Unstained WT and transfected HEK293 cells were included in the analysis as negative controls. After acquisition, all raw data were analyzed using Flowlogic software. Cells were gated using forward and side scatter profile percentage of positive cells was determined for native and overexpressing cell populations.

human HER3 polypeptide [2] = target: T2, human HER3 polypeptide (human, UniProt P21860 20-643); assay: ELISA; plate coated with target polypeptide, antibody serially diluted, absorbance 450 nm
T2 construct: Recombinant antigen of the ELISAs; also called human HER3 (Sino Biological Inc.); human antigen HER3
Experimental: The antibodies were analysed for their ability to bind to human HER3 polypeptide as well as human HER1 (EGFR) and human HER2 (Sino Biological Inc., China).
(§2) ELISAs were carried out according to standard protocols. Plates were coated with 0.1 μg/ml of target polypeptide in phosphate-buffered saline (PBS) for 16 h at 4° C. After blocking for 1 h with 1% BSA in Tris buffer saline (TBS) at room temperature, the anti-HER3 antibody was serially diluted with the highest concentration being 10 μg/ml, and added to the plate. Post 1 h incubation at room temperature, plates were washed three times with TBS containing 0.05% Tween 20 (TBS-T) and were then incubated with a HRP-conjugated anti-His antibody (Life Technologies, Inc., USA) for 1 h at room temperature. After washing, plates were developed with colorimetric detection substrate 3,3′,5,5′-tetramethylbenzidine (Turbo-TMB; Pierce, USA) for 10 min. The reaction was stopped with 2M H₂SO₄, and OD was measured at 450 nm.

cynomolgus macaque HER3 = target: T3, cynomolgus macaque HER3 (cynomolgus macaque, UniProt G7PIG5 20-643); assay: as above
T3 construct: also called monkey homologue of HER3 (Sino Biological Inc.); HER3 cyno
T3 sequence (G7PIG5 entry or part of it): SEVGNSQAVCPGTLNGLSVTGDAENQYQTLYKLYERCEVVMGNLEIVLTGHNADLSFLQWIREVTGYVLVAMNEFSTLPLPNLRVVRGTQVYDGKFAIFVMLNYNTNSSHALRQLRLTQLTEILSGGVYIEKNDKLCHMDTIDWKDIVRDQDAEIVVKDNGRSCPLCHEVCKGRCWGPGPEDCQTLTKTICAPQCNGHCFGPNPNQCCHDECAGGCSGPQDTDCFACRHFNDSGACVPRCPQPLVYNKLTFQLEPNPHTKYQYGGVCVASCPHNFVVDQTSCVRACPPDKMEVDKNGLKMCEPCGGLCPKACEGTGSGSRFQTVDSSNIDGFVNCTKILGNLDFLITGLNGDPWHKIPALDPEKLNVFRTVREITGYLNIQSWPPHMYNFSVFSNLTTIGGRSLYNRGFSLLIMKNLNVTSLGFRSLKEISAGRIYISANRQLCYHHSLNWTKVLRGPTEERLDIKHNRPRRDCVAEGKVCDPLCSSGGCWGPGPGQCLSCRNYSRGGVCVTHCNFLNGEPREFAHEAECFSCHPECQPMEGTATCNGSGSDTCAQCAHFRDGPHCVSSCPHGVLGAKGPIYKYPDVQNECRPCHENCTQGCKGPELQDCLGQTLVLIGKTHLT
Experimental: as §2

rat HER3 = target: T4, rat HER3 (rat, UniProt Q62799 20-641, limits assumed); assay: as above
T4 construct: also called rat homologue of HER3 (Sino Biological Inc.); R. norvegicus HER3
T4 sequence (Q62799 20-641 limits assumed): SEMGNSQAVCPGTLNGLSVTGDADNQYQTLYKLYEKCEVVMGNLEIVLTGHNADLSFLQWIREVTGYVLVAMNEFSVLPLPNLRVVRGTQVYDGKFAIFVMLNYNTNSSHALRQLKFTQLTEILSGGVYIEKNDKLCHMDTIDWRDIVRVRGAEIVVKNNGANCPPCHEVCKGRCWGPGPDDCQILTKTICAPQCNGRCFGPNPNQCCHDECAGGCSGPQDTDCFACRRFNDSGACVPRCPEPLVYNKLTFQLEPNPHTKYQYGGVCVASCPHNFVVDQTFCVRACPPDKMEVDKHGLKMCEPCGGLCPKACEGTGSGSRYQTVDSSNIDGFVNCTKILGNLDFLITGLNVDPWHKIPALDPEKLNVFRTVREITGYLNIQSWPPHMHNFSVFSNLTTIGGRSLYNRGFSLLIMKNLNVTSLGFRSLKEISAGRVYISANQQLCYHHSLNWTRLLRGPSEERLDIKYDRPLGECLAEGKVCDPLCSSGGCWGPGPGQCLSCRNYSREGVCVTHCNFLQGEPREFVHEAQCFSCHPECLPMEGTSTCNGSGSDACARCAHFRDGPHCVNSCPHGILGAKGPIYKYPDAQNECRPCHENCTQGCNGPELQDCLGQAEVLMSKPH
Experimental: as §2

human HER3 polypeptide [3] = target: T2, human HER3 polypeptide; assay: as above; remark: listed apart in the source
Experimental: as §2

mouse HER3 = target: T5, mouse HER3 (mouse, UniProt Q61526 20-641); assay: as above
T5 construct: also called mouse homologue of HER3 (Sino Biological Inc.); M. musculus HER3
T5 sequence (Q61526 20-641 limits assumed): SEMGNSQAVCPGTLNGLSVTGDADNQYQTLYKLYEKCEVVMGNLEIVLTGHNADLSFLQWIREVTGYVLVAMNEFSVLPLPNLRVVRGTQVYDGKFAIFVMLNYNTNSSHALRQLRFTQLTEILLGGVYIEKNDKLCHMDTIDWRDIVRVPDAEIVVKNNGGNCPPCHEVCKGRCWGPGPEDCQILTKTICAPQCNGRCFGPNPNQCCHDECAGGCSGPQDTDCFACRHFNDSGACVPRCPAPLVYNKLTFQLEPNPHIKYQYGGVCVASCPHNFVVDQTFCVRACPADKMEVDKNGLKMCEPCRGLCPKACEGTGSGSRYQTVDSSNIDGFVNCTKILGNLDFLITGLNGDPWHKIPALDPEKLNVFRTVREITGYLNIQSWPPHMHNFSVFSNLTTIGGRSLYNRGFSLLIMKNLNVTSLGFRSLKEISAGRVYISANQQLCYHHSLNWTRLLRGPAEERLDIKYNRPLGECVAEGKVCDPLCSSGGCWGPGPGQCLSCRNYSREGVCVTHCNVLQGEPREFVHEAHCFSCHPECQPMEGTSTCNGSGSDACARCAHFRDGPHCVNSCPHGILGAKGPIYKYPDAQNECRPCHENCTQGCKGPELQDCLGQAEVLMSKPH
Experimental: as §2

human HER3 polypeptide [4] = target: T2, human HER3 polypeptide; assay: BLI; after 7 days at 40 °C/80% RH
hCD16a [5] = target: T6, hCD16a (human, UniProt P08637 17-208, limits assumed); assay: BLI; after 7 days at 40 °C/80% RH
T6 construct: also called human CD16a

His-tagged human HER3 [6] = target: T7, His-tagged human HER3 (human, UniProt P21860 20-643); assay: plate ELISA dimerisation assay; HER2-Fc coated, constant HER3 His and NRG, antibody varied; blocked partner HER2-Fc
T7 construct: Antigen of the BLI experiments and of the HER2-Fc dimerisation ELISA; also called HER3 His; not shown: His tag
Experimental: Plate-based ELISA dimerisation assays were carried out according to standard protocols. Plates were coated with 1 μg/ml HER2-Fc protein. […] Plates were then washed and incubated for 1 hour with secondary anti-HIS HRP antibody. […] The absorbance was read at 450 nm.

human HER3 polypeptide [7] = target: T2, human HER3 polypeptide; assay: BLI; day 0 of storage at 40 °C/80% RH
hCD16a [8] = target: T6, hCD16a; assay: BLI; day 0 of storage at 40 °C/80% RH
[9] = target: T8, human HER4 expressed on HEK293 cells (human, UniProt Q15303 26-1308); assay: flow cytometry on HEK293 HER4 overexpressing cells
T8 construct: whole, on cells; also called HEK293 HER4 overexpressing cells; cell-surface expressed HER4
T8 sequence (Q15303 26-1308): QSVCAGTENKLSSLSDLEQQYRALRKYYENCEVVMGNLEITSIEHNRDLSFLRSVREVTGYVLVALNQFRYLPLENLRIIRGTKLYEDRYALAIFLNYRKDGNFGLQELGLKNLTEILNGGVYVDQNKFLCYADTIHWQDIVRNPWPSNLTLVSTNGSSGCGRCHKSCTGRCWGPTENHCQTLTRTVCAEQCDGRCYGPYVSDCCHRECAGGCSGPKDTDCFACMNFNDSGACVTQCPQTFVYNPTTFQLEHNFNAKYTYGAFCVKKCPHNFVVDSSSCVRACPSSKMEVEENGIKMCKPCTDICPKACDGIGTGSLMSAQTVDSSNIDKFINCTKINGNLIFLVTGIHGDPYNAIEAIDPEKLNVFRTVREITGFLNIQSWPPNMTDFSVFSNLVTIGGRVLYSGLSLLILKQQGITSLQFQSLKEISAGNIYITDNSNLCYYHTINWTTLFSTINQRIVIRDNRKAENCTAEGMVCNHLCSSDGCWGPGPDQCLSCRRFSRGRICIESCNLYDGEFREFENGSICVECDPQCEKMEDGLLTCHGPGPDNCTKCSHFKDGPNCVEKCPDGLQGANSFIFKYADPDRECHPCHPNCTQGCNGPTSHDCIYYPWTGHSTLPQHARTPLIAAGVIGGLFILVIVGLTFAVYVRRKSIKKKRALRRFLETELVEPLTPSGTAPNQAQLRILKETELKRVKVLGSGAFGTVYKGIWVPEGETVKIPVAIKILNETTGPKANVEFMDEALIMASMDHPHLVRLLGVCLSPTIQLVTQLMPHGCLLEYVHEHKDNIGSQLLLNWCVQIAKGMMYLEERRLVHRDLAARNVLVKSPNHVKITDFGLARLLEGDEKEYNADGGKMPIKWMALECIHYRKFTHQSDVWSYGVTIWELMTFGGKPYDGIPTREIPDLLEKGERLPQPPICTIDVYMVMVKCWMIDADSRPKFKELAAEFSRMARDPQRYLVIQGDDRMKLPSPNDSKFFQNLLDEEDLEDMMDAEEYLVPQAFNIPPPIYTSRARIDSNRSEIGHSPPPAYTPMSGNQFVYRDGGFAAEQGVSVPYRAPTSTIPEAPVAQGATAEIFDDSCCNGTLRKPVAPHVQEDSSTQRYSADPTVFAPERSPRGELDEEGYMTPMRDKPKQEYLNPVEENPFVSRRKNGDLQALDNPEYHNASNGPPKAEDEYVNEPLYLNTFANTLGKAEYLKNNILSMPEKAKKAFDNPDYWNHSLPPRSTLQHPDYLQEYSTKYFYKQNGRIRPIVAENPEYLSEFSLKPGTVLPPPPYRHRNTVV
Experimental: Also included was a commercial anti-HER4 antibody (Novus, Cat: FAB11311P). Unstained HEK293 cells were included in the analysis as negative controls.
HEK293 cells were incubated with 10 μg/ml of each antibody for 1 hour at 4° C. Flow cytometry was performed as described above. Cells were contacted with FITC-conjugated anti-FC antibody (Invitrogen, USA) at for 30 min at 4° C.

[10] = target: T1, human HER3 expressed on cells (HEK293 …); assay: flow cytometry on HEK293T HER3 O/E cells, 10 ug antibody as printed, FITC-conjugated anti-Fc secondary; remark: listed apart in the source
Experimental: as §1

His-tagged human HER3 [11] = target: T7, His-tagged human HER3; assay: BLI (Octet QK384), antibody on anti-human IgG capture tips, His-tagged human HER3 in solution, global one-site fit
Method in brief: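 Anti-HER3 IgG1 antibodies (25 nM) were captured on anti-human IgG sensor tips and binding to human HER3 was measured at 25° C with agitation at 1000 rpm.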

B1: 10D1F.FcA (anti-HER3 clone 10D1_c89 IgG1) (antibody)
heavy: not shown
light: DIQMTQSPSSVSASVGDRVTITCKASQIVGSNVAWYQQKPGKAPEPLIYSASYLYSGVPSRFSGSGSGTDFTLTISSLQPEDFATYYCQQYSSHPLTFGQGTKLEIKRTVAAPSVFIFPPSDEQLKSGTASVVCLLNNFYPREAKVQWKVDNALQSGNSQESVTEQDSKDSTYSLSSTLTLSKADYEKHKVYACEVTHQGLSSPVTKSFNRGEC
notes: also called 10D1F.A; HMBD-001
In the case of B1, the “% Parent (HER3 positive)” value [1] is reported as 73.3%, the EC50 (human HER3 polypeptide [2]) is reported as 0.0144 nM and the EC50 (cynomolgus macaque HER3) is reported as 0.0258 nM. For the same binder, the EC50 (rat HER3) was 0.0303 nM, the EC50 (human HER3 polypeptide [3]) was 0.0144 nM and the EC50 (mouse HER3) was 0.0332 nM. For the same binder, the Kd (human HER3 polypeptide [4]) was under 0.001 nM, the Kd (hCD16a [5]) was 302 nM and the IC50 (His-tagged human HER3 [6]) was 78.8 nM. For the same binder, the Kd (human HER3 polypeptide [7]) was under 0.001 nM, the Kd (hCD16a [8]) was 294 nM and the binding result [9] was “no binding”. For the same binder, the “% Parent (HER3 positive)” value [10] was 73.3% and the Kd (His-tagged human HER3 [11]) was 0.0726 nM.
